Measured values reported in the supplement of paper PMC10567573.
± gives the standard deviation.

Assay: protein stability index of a GFP-peptide fusion (GPS, HEK-293T) (PSI 1-6); higher = more stable
[1] = treatment: DMSO, c terminus: a fixed tail appended
[2] = treatment: MLN4924 1 uM, 8 h, c terminus: a fixed tail appended
[3] = treatment: DMSO, c terminus: native
[4] = treatment: MLN4924 1 uM, 8 h, c terminus: native
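Also: 24-mer peptide tiles fused after GFP, lentivirally expressed, FACS-sorted into six equal bins by GFP/DsRed ratio, decoded by Illumina sequencing, PSI is the read-weighted mean bin number.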

Sequence | protein stability index [1] | protein stability index [2] | protein stability index [3] | protein stability index [4]
MALKTSLGSVQFMEQFCWPHLRSF | 3.01 ± 0.86 | 2.69 ± 0.73 | – | –
MATATPVPPRMGSRAGGPTTPLSP [LMNB1] | 4.21 ± 0.17 | 4.24 ± 0.29 | – | –
MDYKSSLIQDGNPMENLEKQLICP [TRIM63] | 4.06 ± 0.29 | 4.14 ± 0.16 | – | –
MEDEMPKTLYVGNLSRDVTEALIL [TIA1] | 2.41 ± 0.36 | 2.63 ± 0.28 | – | –
MEIMEAYSVARQFNLTPPICEQAE [KCNAB2] | 3.72 ± 0.18 | 3.65 ± 0.33 | – | –
MEKATVPVAAATAAEGEGSPPAVA [ANKRD17] | 5.67 ± 0.24 | 5.65 ± 0.11 | – | –
MFRSKRSGLVRRLWRSRVVPDREE [SMAD6] | 2.67 ± 0.17 | 3.24 ± 0.5 | – | –
MGTSHGITRPSPRRSNSPDKFKRP [CCDC6] | 4.71 ± 0.087 | 4.89 ± 0.11 | – | –
MHGNEALGRELMLQLSEFLCEEFR [CPN1] | 2.24 ± 0.49 | 2.67 ± 0.22 | – | –
MIARCLLAVRSLRRVGGSRILLRM [NLN] | 2.35 ± 0.74 | 2.05 ± 0.39 | – | –
MISTYEFGKSFFQRLNQDRLLGG [SLC25A39] | – | – | 3.21 ± 0.83 | 2.44 ± 0.27
MITVQLPEVPANENIKGYYIIIVP [PTPRD] | 3 ± 0.77 | 2.99 ± 0.62 | – | –
MKFVPRYSLVLELSDSGAFRRSLH [APMAP] | 2.17 ± 0.54 | 2.03 ± 0.51 | – | –
MKYYIVHLKRHFMFRNHLCLVFEL [DYRK1B] | 2.9 ± 0.53 | 2.44 ± 0.63 | – | –
MLTTRVFSLVGKRAISTSVCVRAH [COX4I1] | 2.56 ± 0.64 | 2.4 ± 0.59 | – | –
MPHARTETSVGTYESHSTSELEDL [TPD52L3] | 5.43 ± 0.18 | 5.37 ± 0.3 | – | –
MQEKNPVHVIGVEEPSVGASMLFD [ZNF8] | 4.41 ± 0.094 | 4.34 ± 0.2 | – | –
MQENITKVIERGERLDELQDKSES [VAMP4] | 5.04 ± 0.37 | 5.05 ± 0.41 | – | –
MQRMIQQFAAEYTSKNSSTQDPSQ [LCOR] | 3.69 ± 0.41 | 3.68 ± 0.45 | – | –
MRAQAQEQERRERREQAAAAPFPS [TFE3] | 5.09 ± 0.26 | 4.91 ± 0.22 | – | –
MSAAQGWDRNRRRGGGAAGAGGGG [KLHDC10] | 4.97 ± 0.27 | 4.92 ± 0.25 | – | –
MSDRRENDMSPSNNVVPIHVPPTT [RAB11A] | 4.67 ± 0.17 | 4.87 ± 0.12 | – | –

Sequence | protein stability index [1] | protein stability index [2] | protein stability index [3] | protein stability index [4]
MSPSMLTRNSPRGCRLPSISSTTC [SPATS1] | 2.97 ± 0.18 | 3.03 ± 0.2 | – | –
MSVNVNRSVSDQFYRYKMPRLIAK [EIF5] | 2.52 ± 0.14 | 2.77 ± 0.29 | – | –
MTVKQYEAARLEYDAYRTDLEELS [ARFIP2] | 3.84 ± 0.19 | 3.97 ± 0.21 | – | –
MVMIRGNSGLKPKDNEFTSKPWHW [POMT2] | 2.38 ± 0.26 | 2.21 ± 0.25 | – | –
MYLSPPSIHCLGPIKLELLEPKAN [VPS39] | 2.26 ± 0.38 | 2.41 ± 0.39 | – | –
MYYRGSAAAIIVYDITKEETFSTL [RAB22A] | 2.75 ± 0.69 | 2.72 ± 0.84 | – | –
NACATKEQKNHTFPRLNRNKYMVT [PLD5] | 3.63 ± 0.3 | 3.77 ± 0.41 | – | –
NAEMVQQTTYLEDRPMFMLQCAME [LOXL2] | 3.11 ± 0.25 | 3 ± 0.1 | – | –
NAFQETWYWHGDVNSNKVVMSGVK [LOXL2] | 2.75 ± 0.31 | 2.84 ± 0.48 | – | –
NDTKKMYAMKYMNKQKCVERNEVR [STK32A] | 3.71 ± 0.2 | 3.97 ± 0.33 | – | –
NEWRMVASMSKRRCGVGVSVLDDL [KLHL20] | 2.27 ± 0.52 | 2.25 ± 0.34 | – | –
NGDVSAPSAILRTPESTKPGPVCQ [ANKRD40] | 4.782 ± 0.036 | 4.83 ± 0.13 | – | –
NGQKPLGAAEPITVKFANNPSQKT [ELAVL3] | 4.85 ± 0.36 | 4.83 ± 0.23 | – | –
NIAIMTEEPELSPAYLISEAMRRS [GFOD1] | 3.5 ± 0.27 | 3.72 ± 0.2 | – | –
NLLEKFFEMKKGQCKDALEIYKRF [SNAP91] | 2.41 ± 0.46 | 2.69 ± 0.8 | – | –
NPAPAAPCPLGEPKTQACSGSESP [MYCL] | 5.57 ± 0.23 | 5.63 ± 0.15 | – | –
NPFKERICRVFSTSPAKDSLSFED [CIB1] | 2.77 ± 0.21 | 2.75 ± 0.2 | – | –
NPNLSNRRGSTPLHMAVERRVRGV [RIPK4] | 3.84 ± 0.56 | 4.47 ± 0.65 | – | –
NPWNWGKLAEAYLNLGPALSAALA [C8orf76] | 2.57 ± 0.26 | 2.44 ± 0.15 | – | –
NQGLNVMVWNQNGKSPSITFEYTL [ADAMTSL2] | 3.01 ± 0.3 | 2.64 ± 0.53 | – | –
NQNNYRLLSCGKILTGCKNMLFQQ [ACSBG2] | 2.9 ± 1.2 | 2.3 ± 0.69 | – | –
NQVVSSTNGELNTDDPTAGRSNAP [CSNK1G3] | 5.41 ± 0.28 | 5.5 ± 0.17 | – | –

Sequence | protein stability index [1] | protein stability index [2] | protein stability index [3] | protein stability index [4]
NRRLRALEEQGATWRHRETLIIAV [FATE1] | 2.46 ± 0.39 | 2.22 ± 0.15 | – | –
NSESWGWDIGRGKLYHQSKGPGAP [SPSB2] | 3.63 ± 0.17 | 3.98 ± 0.25 | – | –
NSFGAILQGSLFGLAGLLPASYTA [SLC29A1] | 2.21 ± 0.27 | 2.9 ± 0.84 | – | –
NSNGGNLNSPPGPHSAKTEEHTTI [CDC14A] | 5.28 ± 0.17 | 5.49 ± 0.2 | – | –
NSVTAGDYSRPLHISTFINELDSG [TSN] | 3.54 ± 0.19 | 3.71 ± 0.18 | – | –
NTFFCHSNMCINNTLVCNGLQNCV [NETO1] | 2.13 ± 0.41 | 2.07 ± 0.38 | – | –
NTLRCQLGDRLNVEVDAAPAVDLN [KRT33B] | 4.47 ± 0.19 | 4.39 ± 0.22 | – | –
NTNSDPLDPSFPVEFVRHGDIIRL [POMT2] | 2.69 ± 0.38 | 2.86 ± 0.28 | – | –
NVSVMHKSLDNMPNDEHWKALSRK [FBXO33] | 4.19 ± 0.089 | 4.03 ± 0.14 | – | –
NYLAEHCPPLHIPGSMSEVQELCK [TNNI2] | 3.91 ± 0.19 | 3.78 ± 0.11 | – | –
PCQKSPNGVRVFPPAMPPPATHLS [TRIM9] | 3.63 ± 0.31 | 3.78 ± 0.15 | – | –
PCSGSVSLQPRRSIAFRLRLASFD [GMCL1] | 2.58 ± 0.39 | 2.24 ± 0.27 | – | –
PCVRPGVSGSPVTQNHAASALPTG [FBF1] | 4.45 ± 0.26 | 4.5 ± 0.06 | – | –
PCYSRQFITSCPCWLEILLNNPR [SMAD6] | – | – | 2.92 ± 0.28 | 2.77 ± 0.42
PDGVWAYNRGEHPIFVNSPTLDAP [SMAD6] | 3.56 ± 0.34 | 3.62 ± 0.16 | – | –
PEEGQQPWLCGESFTLADVSLAVT [GDAP1] | 3.27 ± 0.23 | 3.4 ± 0.21 | – | –
PFAPEPTPPTTTAEIATASASAST [SNAP91] | 5.37 ± 0.16 | 5.41 ± 0.14 | – | –
PFAYLTVLDLSKSLSAALLTAALL [POMT2] | 2.98 ± 0.23 | 3.02 ± 0.16 | – | –
PFREQSFLCAAGDAGEESRVQVLK [TIAF1] | 4.54 ± 0.25 | 4.6 ± 0.16 | – | –
PGAGVPSGSGGTVAPATMGSARSH [ZBTB22] | 4.75 ± 0.16 | 4.8 ± 0.15 | – | –
PGLLSLATTSASDSLKPEQLDIEE [TFE3] | 5.35 ± 0.23 | 5.55 ± 0.17 | – | –
